Article PMC4496087

B1: Chemokine (C-C motif) ligand 5 (CCL5), unlabelled, P13501 24-91 (ligand)
chain: SPYSSDTTPCCFAYIARPLPRAHIKEYFYTSGKCSNPAVVFVTRKNRQVCANPEKKWVREYINSLEMS

What was measured:
[1] = biological target: Wild type CCR5, endogenous on human monocyte-derived macrophages (human (endogenous in monocyte-derived macrophages)) (UniProt P51681)
[2] = biological target: Wild type CCR5, endogenous on human monocyte-derived macrophages (human (endogenous in monocyte-derived macrophages)), P51681; test: radioligand binding; competition: human macrophages (membranes) pretreated with different amounts of CCR5-T4L or CCL5, or CCL5 plus CCR5-T4L; specific binding of 0.3 nmol/L [125I]-CCL5, 2 h at 37°C, unbound ligand removed through a 10% sucrose/PBS cushion, gamma counting; conditions: remark: other sources report otherwise

| Molecule | [35S]GTPγS binding to membranes of human MDM (G-protein activation), EC50 [1] [nM] | EC50 [2] [nM] |
| --- | --- | --- |
| Soluble recombinant CCR5-T4L protein (receptor) | 5460 | – |
| B1 | – | 0.046 |
